For 105 substances, amyloid nucleation score results are on record in the supplement of paper PMC12042874.

± gives the uncertainty stated by the source.

A short description of this series: amyloid nucleation score (Sup35N fusion, yeast selection) (log enrichment); library NNK1; higher = more nucleation; inactive = no reads after selection. The method, boiled down:
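The nucleation score is the DiMSum log enrichment of output over input reads, centred on the mode score of non-aggregating sequences. Only sequences with 100 or more input reads were scored, using Illumina sequencing of input and output plasmid inserts. Psi-negative yeast expressing Sup35N fused to peptides of 20 random codons were induced 24 hours with 100 μM copper sulfate and grown 7 days at 30°C on medium lacking adenine and uracil.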
For the substance ALLNVQVRGYVGLGR, the amyloid nucleation score came to 1.4 ± 0.52.

In the case of ALNLKCIRLSGV, the amyloid nucleation score came to 0.496 ± 0.47. ALRIHGLCFEVVCMRIWSRR gave an amyloid nucleation score of 0.436 ± 0.46.

Substance ALSGCERRNHLSCRSNLRDG yielded an amyloid nucleation score of -0.542 ± 0.91. On to ALSYGIVAMMVVIGPGIVVC, for which the amyloid nucleation score is 0.388 ± 0.27. In turn, ALVGMRQITEILVTRDRQWG displayed an amyloid nucleation score of 0.332 ± 0.27.

In the case of ALVRL, the amyloid nucleation score amounted to 0.085 ± 0.46. In turn, ALWVNVMQARAIGSGFGRTK gave an amyloid nucleation score of -0.415 ± 0.58. The same measure for ALYKSPLVNRSYAFLYSGA: 0.964 ± 0.69; for AMEPKVWRDGLLPG: -0.471 ± 0.47; for AMFNIW: -0.328 ± 0.47. In turn, AMGARMFRNYRTACAHLLQW yielded an amyloid nucleation score of 0.019 ± 1. As for AMGRGLNWCPIGFVVSDMQR, the amyloid nucleation score was 1.39 ± 0.67. In turn, AMLSIVSISAS gave an amyloid nucleation score of 1.39 ± 0.69.

Take AMRGYCRAFQIWVWICGLSL: the amyloid nucleation score came to 0.027 ± 0.86. As to AMWLFACGLWLLLPRYIGRC, the amyloid nucleation score is -0.485 ± 1.2. In the case of ANGILV, the amyloid nucleation score came to 0.499 ± 0.28. ANSVQG returned an amyloid nucleation score of 0.9 ± 0.73.

With ANTLRKMNLLSELVLNLLTG, the amyloid nucleation score amounted to 3.3 ± 0.14.

On to ANWCF, for which the amyloid nucleation score is -0.213 ± 0.5.

In turn, APAAIINFLDPHICARMAMF showed an amyloid nucleation score of -0.513 ± 1.3. Substance APDDSRQCSETESSGFLTHW came in with an amyloid nucleation score of 0.366 ± 0.47.

Take APEFFNSDRASIAKF: the amyloid nucleation score is -0.558 ± 0.77.

Consider APMNVLEVTFSYSADLTVVV, for which the amyloid nucleation score is 0.167 ± 0.79. Consider APSWYRSLMRSSA, for which the amyloid nucleation score was 0.159 ± 0.34.

With APVVGTNSTTGEYSLTPSSW, the amyloid nucleation score is 0.741 ± 0.41. AQARWCWRLH came in with an amyloid nucleation score of 0.963 ± 0.69.

As for AQQLLIGDDDLDTAVEFDDM, the amyloid nucleation score is -0.509 ± 0.86. AQTWGESKTLPENLANYDAY displayed an amyloid nucleation score of 0.241 ± 0.56. AQVNLIPNLRETLYDPAISR registered an amyloid nucleation score of 0.665 ± 0.55. In the case of ARATS it was -0.53 ± 0.52; in that of ARRASVEFSYSTLERGMWRC, 1.9 ± 0.18; in that of ARRGVVNPYLSVEFFFRRGL, 0.493 ± 0.68. On to ARSTSALQL, for which the amyloid nucleation score is -1.97 ± 1.8. With ARVGFTLT, the amyloid nucleation score is -0.265 ± 0.87.

On to ASAFFRVWSLNKIICYEVSD, for which the amyloid nucleation score was found to be 4.56 ± 0.051. The substance ASFRNRPCVQCPGLCILRLS yielded an amyloid nucleation score of 0.002 ± 0.24. For the substance ASGDMSDWISWLGSMRCKIR, the amyloid nucleation score was -0.082 ± 1.

As to ASLTFFS, the amyloid nucleation score turned out to be 0.283 ± 0.76.

Consider ASNAWCMYYMLATGAMEISL, for which the amyloid nucleation score was -0.617 ± 0.86.

Turning to ASPMVRISYLNDHKQLKKF, the amyloid nucleation score is -0.414 ± 0.28. In turn, ASSCLNSRFGCQRFLGYLWL had an amyloid nucleation score of 0.33 ± 0.39. The substance ASSLDLFNWASVWFFNYIGA returned an amyloid nucleation score of -0.887 ± 0.86. ASTSYPWKSGVMVGGKLKNP displayed an amyloid nucleation score of 0.287 ± 0.53. As to ASYMYAPSIFYSERLKWNPS, the amyloid nucleation score was determined as 0.226 ± 0.78. As for ASYTIND, the amyloid nucleation score is -0.57 ± 1.1. ASYYQWLSLFFLTNRPFFGG yielded an amyloid nucleation score of -0.809 ± 1.2. ATCCNSWIAF had an amyloid nucleation score of 7.035 ± 0.054. ATDSWDC registered an amyloid nucleation score of 0.278 ± 0.33.

For the substance ATKSRLVNILTGKDEALTGL, the amyloid nucleation score was -0.684 ± 0.42. ATLMYWASSWSCWFTKGTAV had an amyloid nucleation score of -0.413 ± 0.37.

As to ATMCVTLIWCYSSKQRMYKK, the amyloid nucleation score worked out at 1.08 ± 0.15. Substance ATMYICTRHSTAYGVFHSFV displayed an amyloid nucleation score of 0.105 ± 1.2. ATSALGCVTHVIMSNILTMN displayed an amyloid nucleation score of 0.106 ± 0.34. In the case of ATSPLCCRH it was 0.022 ± 0.28; in that of AVCDKVLRSVEWIFPGLNDS, -0.496 ± 0.51; in that of AVEGCVFCWIRCVIRFLV, -0.642 ± 0.69. Consider AVGIANFTAPKCWLDNVGP, for which the amyloid nucleation score is 0.085 ± 0.59.

As for AVHICYNYRSYSI, the amyloid nucleation score was 0.5 ± 0.95. As to AVQKVRCRWN, the amyloid nucleation score is -0.009 ± 0.23. In turn, AVRDDMDY showed an amyloid nucleation score of -0.059 ± 0.22.

Substance AVVERFHL displayed an amyloid nucleation score of -0.132 ± 0.39. Regarding AWIDCVSTNTTLDIPSLGP, the amyloid nucleation score was determined as 0.402 ± 0.24. AWLNRSYRMLHPMWGVCMDM came in with an amyloid nucleation score of 1.26 ± 0.85.

For AYCVH, the amyloid nucleation score was determined as 0.202 ± 0.59. On to AYILRWFFTSECRSVQSTSK, for which the amyloid nucleation score is -0.105 ± 0.45. AYLGASREIYCYGPMYYMLP displayed an amyloid nucleation score of 2.97 ± 0.098. AYPLKTFIFYHGLMIWFNAM: the amyloid nucleation score worked out at 0.827 ± 0.84. The substance AYSDVYQLFYLKYMFCNWLL registered an amyloid nucleation score of 2.89 ± 0.26. In turn, CACKLVQSIYLCESLGHPRS returned an amyloid nucleation score of 5.73 ± 0.06.

Substance CAKLCKASHSVFIDDRRCVR displayed an amyloid nucleation score of -1.02 ± 2.4. For CALVYGWTEHDV, the amyloid nucleation score turned out to be 1.44 ± 0.64. On to CANGLLRDLVQAI, for which the amyloid nucleation score was determined as 0.547 ± 0.61.

CARSVCKSQYSSMSMPYLIV came in with an amyloid nucleation score of 0.782 ± 0.39. For CCLHSAFSNNARILFMALRS, the amyloid nucleation score was 0.861 ± 0.84. The same measure for CDGDASAYDTRGTALSA: “inactive”; for CDGPCALQS: 0.263 ± 0.51. For CDKKWIASQSMVGRRTMV, the amyloid nucleation score result was “inactive”. As for CEGCSWFSCSF, the amyloid nucleation score came out at 0.749 ± 0.48. As to CEGKGWFANITYSDFLLIMR, the amyloid nucleation score is -0.462 ± 0.97.

Consider CEMKASGLKYVHRFNSIPVM, for which the amyloid nucleation score worked out at 0.984 ± 0.57. With CEMMDNPFLLLRVKGSKVRS, the amyloid nucleation score result was “inactive”.

On to CERLKT, for which the amyloid nucleation score came out at 0.784 ± 0.35. As to CERQNYVP, the amyloid nucleation score stood at 0.326 ± 1.2. Take CFFASVHPLCYRGVSGVGVF: the amyloid nucleation score was -1.28 ± 2.1.

The substance CFFRTDGLDTPYGAYLVRSF showed an amyloid nucleation score of 2.31 ± 0.2. In turn, CFLIVHLNSRSDTCHEGSEC registered an amyloid nucleation score of -0.081 ± 0.54. In the case of CFLVGSWTPI, the amyloid nucleation score was found to be 0.215 ± 0.76. As to CFPTWYLLLDCWVQFPAHTK, the amyloid nucleation score came out at 2.56 ± 0.16. For CFSDKS, the amyloid nucleation score is -0.621 ± 0.42. As for CFVHLLGIIYLSLDRNYCRE, the amyloid nucleation score was 0.272 ± 0.57. Turning to CGAVHGGGWSAIYLNGYLGW, the amyloid nucleation score worked out at 0.186 ± 0.95. Regarding CGFVEMTSRSKIHSLICWPG, the amyloid nucleation score amounted to 1.53 ± 0.44. On to CGGYSTTCSLTWEILASNRL, for which the amyloid nucleation score is 0.675 ± 1.

Turning to CHRRMMNEWSGLKNVLFKKG, the amyloid nucleation score was determined as 0.791 ± 0.97.

Consider CHSHDVCRGMLT, for which the amyloid nucleation score was -0.135 ± 0.38. CIDMFNLLNLKHASYWVVVY displayed an amyloid nucleation score of -0.563 ± 0.52. CIEDVCCS came in with an amyloid nucleation score of -0.016 ± 0.23. CILAGGSSVGLNCVGMSTCG showed an amyloid nucleation score of 0.438 ± 0.8. The same measure for CIRREFSHDESDVNRSTWFI: 0.391 ± 0.71. As for CISGD, the amyloid nucleation score came out at 0.429 ± 0.37. Regarding CIWSSNLFSRSSTSDWRLDT, the amyloid nucleation score was -0.109 ± 0.29.

Turning to CKKELFKT, the amyloid nucleation score was found to be 0.77 ± 0.66. As for CKMWTE, the amyloid nucleation score worked out at 0.405 ± 0.75.

Take CKTGGFYRSVGRTTRFCHVE: the amyloid nucleation score is -0.321 ± 0.39.
